# Source: patent US20230220042A1 (SHANGHAI JIAO TONG UNIVERSITY SCHOOL OF MEDICINE, published 2023)
# T1: Biotin-FcγRIIB (human FcγRIIB, Sino Biological) (human, UniProt P31994 43-217, limits assumed, biotin-labeled)
# T1 construct: Used at 1 µg/ml with Streptavidin-APC for flow cytometry and sorting; also called CD32b
# T1 sequence (looked up): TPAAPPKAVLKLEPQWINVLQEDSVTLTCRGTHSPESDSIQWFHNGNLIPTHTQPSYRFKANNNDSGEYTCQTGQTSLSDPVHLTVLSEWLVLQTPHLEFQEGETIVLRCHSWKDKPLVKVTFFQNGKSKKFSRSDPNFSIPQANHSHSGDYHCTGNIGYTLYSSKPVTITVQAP
# Target: T1, Biotin-FcγRIIB (human FcγRIIB, Sino …)
# Experiment: NGS after FACS sort of 3T3-displayed Library2 for biotin-FcγRIIB binding
Enrichment factor (percentage after sorting/percentage before sorting),Increased factor (enrichment factor/wild-type enrichment factor),Binder
19.2,33.4,"human IgG2 anti-mouse CD40 surface displayed antibody, S267E/P271Y (antibody, name in EU numbering, m1 with these Fc mutations (Eu numbering); copies: 2 + 2) light chain (with the P2A rest): DTVLTQSPALAVSPGERVTISCRASDSVSTLMHWYQQKPGQQPKLLIYLASHLESGVPARFSGSGSGTDFTLTIDPVEADDTATYYCQQSWNDPWTFGGGTKLELKRTVAAPSVFIFPPSDEQLKSGTASVVCLLNNFYPREAKVQWKVDNALQSGNSQESVTEQDSKDSTYSLSSTLTLSKADYEKHKVYACEVTHQGLSSPVTKSFNRGECGSGATNFSLLKQAGDVEENPG heavy chain: EVQLVESDGGLVQPGRSLKLPCAASGFTFSDYYMAWVRQAPTKGLEWVASISYDGSSTYYRDSVKGRFTISRDNAKSTLYLQMDSLRSEDTATYYCGRHSSYFDYWGQGVMVTVSSASTKGPSVFPLAPCSRSTSESTAALGCLVKDYFPEPVTVSWNSGALTSGVHTFPAVLQSSGLYSLSSVVTVPSSNFGTQTYTCNVDHKPSNTKVDKTVERKCCVECPPCPAPPVAGPSVFLFPPKPKDTLMISRTPEVTCVVVDVEHEDYEVQFNWYVDGVEVHNAKTKPREEQFNSTFRVVSVLTVVHQDWLNGKEYKCKVSNKGLPAPIEKTISKTKGQPREPQVYTLPPSREEMTKNQVSLTCLVKGFYPSDIAVEWESNGQPENNYKTTPPMLDSDGSFFLYSKLTVDKSRWQQGNVFSCSVMHEALHNHYTQKSLSLSPGKLEPPPSTVSNMATVAVLVVLGAAIVTGAVVAFVMKMRRRNTGGKGGDYALAPGSQTSDLSLPDCKVMVHDPHSLA"
1.79,3.5,"human IgG2 anti-mouse CD40 surface displayed antibody, S267G (antibody, name in EU numbering, m1 with this Fc mutation (Eu numbering); copies: 2 + 2) light chain (with the P2A rest): DTVLTQSPALAVSPGERVTISCRASDSVSTLMHWYQQKPGQQPKLLIYLASHLESGVPARFSGSGSGTDFTLTIDPVEADDTATYYCQQSWNDPWTFGGGTKLELKRTVAAPSVFIFPPSDEQLKSGTASVVCLLNNFYPREAKVQWKVDNALQSGNSQESVTEQDSKDSTYSLSSTLTLSKADYEKHKVYACEVTHQGLSSPVTKSFNRGECGSGATNFSLLKQAGDVEENPG heavy chain: EVQLVESDGGLVQPGRSLKLPCAASGFTFSDYYMAWVRQAPTKGLEWVASISYDGSSTYYRDSVKGRFTISRDNAKSTLYLQMDSLRSEDTATYYCGRHSSYFDYWGQGVMVTVSSASTKGPSVFPLAPCSRSTSESTAALGCLVKDYFPEPVTVSWNSGALTSGVHTFPAVLQSSGLYSLSSVVTVPSSNFGTQTYTCNVDHKPSNTKVDKTVERKCCVECPPCPAPPVAGPSVFLFPPKPKDTLMISRTPEVTCVVVDVGHEDPEVQFNWYVDGVEVHNAKTKPREEQFNSTFRVVSVLTVVHQDWLNGKEYKCKVSNKGLPAPIEKTISKTKGQPREPQVYTLPPSREEMTKNQVSLTCLVKGFYPSDIAVEWESNGQPENNYKTTPPMLDSDGSFFLYSKLTVDKSRWQQGNVFSCSVMHEALHNHYTQKSLSLSPGKLEPPPSTVSNMATVAVLVVLGAAIVTGAVVAFVMKMRRRNTGGKGGDYALAPGSQTSDLSLPDCKVMVHDPHSLA"
1.48,2.57,"human IgG2 anti-mouse CD40 surface displayed antibody, S267M (antibody, name in EU numbering, m1 with this Fc mutation (Eu numbering); copies: 2 + 2) light chain (with the P2A rest): DTVLTQSPALAVSPGERVTISCRASDSVSTLMHWYQQKPGQQPKLLIYLASHLESGVPARFSGSGSGTDFTLTIDPVEADDTATYYCQQSWNDPWTFGGGTKLELKRTVAAPSVFIFPPSDEQLKSGTASVVCLLNNFYPREAKVQWKVDNALQSGNSQESVTEQDSKDSTYSLSSTLTLSKADYEKHKVYACEVTHQGLSSPVTKSFNRGECGSGATNFSLLKQAGDVEENPG heavy chain: EVQLVESDGGLVQPGRSLKLPCAASGFTFSDYYMAWVRQAPTKGLEWVASISYDGSSTYYRDSVKGRFTISRDNAKSTLYLQMDSLRSEDTATYYCGRHSSYFDYWGQGVMVTVSSASTKGPSVFPLAPCSRSTSESTAALGCLVKDYFPEPVTVSWNSGALTSGVHTFPAVLQSSGLYSLSSVVTVPSSNFGTQTYTCNVDHKPSNTKVDKTVERKCCVECPPCPAPPVAGPSVFLFPPKPKDTLMISRTPEVTCVVVDVMHEDPEVQFNWYVDGVEVHNAKTKPREEQFNSTFRVVSVLTVVHQDWLNGKEYKCKVSNKGLPAPIEKTISKTKGQPREPQVYTLPPSREEMTKNQVSLTCLVKGFYPSDIAVEWESNGQPENNYKTTPPMLDSDGSFFLYSKLTVDKSRWQQGNVFSCSVMHEALHNHYTQKSLSLSPGKLEPPPSTVSNMATVAVLVVLGAAIVTGAVVAFVMKMRRRNTGGKGGDYALAPGSQTSDLSLPDCKVMVHDPHSLA"
32.1,56,"human IgG2 anti-mouse CD40 surface displayed antibody, S267M/P271C (antibody, name in EU numbering, m1 with these Fc mutations (Eu numbering); copies: 2 + 2) light chain (with the P2A rest): DTVLTQSPALAVSPGERVTISCRASDSVSTLMHWYQQKPGQQPKLLIYLASHLESGVPARFSGSGSGTDFTLTIDPVEADDTATYYCQQSWNDPWTFGGGTKLELKRTVAAPSVFIFPPSDEQLKSGTASVVCLLNNFYPREAKVQWKVDNALQSGNSQESVTEQDSKDSTYSLSSTLTLSKADYEKHKVYACEVTHQGLSSPVTKSFNRGECGSGATNFSLLKQAGDVEENPG heavy chain: EVQLVESDGGLVQPGRSLKLPCAASGFTFSDYYMAWVRQAPTKGLEWVASISYDGSSTYYRDSVKGRFTISRDNAKSTLYLQMDSLRSEDTATYYCGRHSSYFDYWGQGVMVTVSSASTKGPSVFPLAPCSRSTSESTAALGCLVKDYFPEPVTVSWNSGALTSGVHTFPAVLQSSGLYSLSSVVTVPSSNFGTQTYTCNVDHKPSNTKVDKTVERKCCVECPPCPAPPVAGPSVFLFPPKPKDTLMISRTPEVTCVVVDVMHEDCEVQFNWYVDGVEVHNAKTKPREEQFNSTFRVVSVLTVVHQDWLNGKEYKCKVSNKGLPAPIEKTISKTKGQPREPQVYTLPPSREEMTKNQVSLTCLVKGFYPSDIAVEWESNGQPENNYKTTPPMLDSDGSFFLYSKLTVDKSRWQQGNVFSCSVMHEALHNHYTQKSLSLSPGKLEPPPSTVSNMATVAVLVVLGAAIVTGAVVAFVMKMRRRNTGGKGGDYALAPGSQTSDLSLPDCKVMVHDPHSLA"
4.31,7.52,"human IgG2 anti-mouse CD40 surface displayed antibody, S267M/P271G (antibody, name in EU numbering, m1 with these Fc mutations (Eu numbering); copies: 2 + 2) light chain (with the P2A rest): DTVLTQSPALAVSPGERVTISCRASDSVSTLMHWYQQKPGQQPKLLIYLASHLESGVPARFSGSGSGTDFTLTIDPVEADDTATYYCQQSWNDPWTFGGGTKLELKRTVAAPSVFIFPPSDEQLKSGTASVVCLLNNFYPREAKVQWKVDNALQSGNSQESVTEQDSKDSTYSLSSTLTLSKADYEKHKVYACEVTHQGLSSPVTKSFNRGECGSGATNFSLLKQAGDVEENPG heavy chain: EVQLVESDGGLVQPGRSLKLPCAASGFTFSDYYMAWVRQAPTKGLEWVASISYDGSSTYYRDSVKGRFTISRDNAKSTLYLQMDSLRSEDTATYYCGRHSSYFDYWGQGVMVTVSSASTKGPSVFPLAPCSRSTSESTAALGCLVKDYFPEPVTVSWNSGALTSGVHTFPAVLQSSGLYSLSSVVTVPSSNFGTQTYTCNVDHKPSNTKVDKTVERKCCVECPPCPAPPVAGPSVFLFPPKPKDTLMISRTPEVTCVVVDVMHEDGEVQFNWYVDGVEVHNAKTKPREEQFNSTFRVVSVLTVVHQDWLNGKEYKCKVSNKGLPAPIEKTISKTKGQPREPQVYTLPPSREEMTKNQVSLTCLVKGFYPSDIAVEWESNGQPENNYKTTPPMLDSDGSFFLYSKLTVDKSRWQQGNVFSCSVMHEALHNHYTQKSLSLSPGKLEPPPSTVSNMATVAVLVVLGAAIVTGAVVAFVMKMRRRNTGGKGGDYALAPGSQTSDLSLPDCKVMVHDPHSLA"
